B4: B-cell lymphoma extra-large protein (Bcl-xL), first 209 amino acids with N-terminal avitag (other)
chain: AGGLNDIFEAQKIEWHEGGMSQSNRELVVDFLSYKLSQKGYSWSQFSDVEENRTEAPEGTESEMETPSAINGNPSWHLADSPAVNGATGHSSSLDAREVIPMAAVKQALREAGDEFELRYRRAFSDLTSQLHITPGTAYQSFEQVVNELFRDGVNWGRIVAFFSFGGALCVESVDKEMQVLVSRIAAWMATYLNDHLEPWIQENGGWDTFVELYGNNAAAESRKGQER
modifications: biotin on the avitag (BirA biotin ligase); a non-biotinylated form was used as the excess competitor in solution in the off-rate assays
notes: range 1-209; Expressed in E. coli BL21(DE3); Used in solution (forward assays) or immobilized through biotin on streptavidin plates or beads (reverse assay, off-rate and HTSK experiments); not shown: His tag implied (pET24a NdeI/XhoI, Ni-NTA purification, anti-HIS probe)

The target of assay [1] is B4. The assay can be described thus: dissociation of radiolabeled construct from immobilized Bcl-xL with excess Bcl-xL in solution. The procedure:
(§1) The radiolabeled peptides were allowed to bind to 30 pmol immobilized Bcl-xL for 1 hour in sample buffer (1×PBS, 1% (w/v) BSA, 0.1% (v/v) Tween 20, 10 μM biotin). The beads were magnetically separated, and washed 5× with sample buffer. The beads were resuspended in 1 mL of sample buffer containing 3 μM non-biotinylated Bcl-xL (˜100× molar excess relative to immobilized biotinylated Bcl-xL). At various time points, 100 μL of slurry was removed and the beads were magnetically separated and washed. The percent remaining at each time point was determined by dividing the counts per minute (cpm) on beads by total cpm (beads+washes). The peptide off-rate was determined by an exponential fit of the Percent counts on beads vs. Time (s).
(§2) The Kd for the peptides is measured by the equilibrium ELISA/AAMP assays (Table 1). The off-rate for these peptides was obtained by measuring the dissociation rate for radiolabeled peptide-mRNA fusions bound to immobilized Bcl-xL. The on-rate was calculated based on the equilibrium Kd measurements and the radiolabeled off-rate.

For assay [2], the target named is B4. The assay can be described thus: radiolabeled HA-tagged peptide off-rate from immobilized Bcl-xL. On the procedure:
as §1
The peptide ligands were made using a C-terminal HA tag, and affinity purified.

Assay [3] addresses B4. The assay can be described thus: equilibrium ELISA/AMMP (value of Table 1 given again).
In assay [4] the target is B4. Put plainly: equilibrium ELISA and AMMP, monovalent model, Kd and [L]0 fit simultaneously.
The target of assay [5] is B4. Put plainly: equilibrium ELISA, monovalent model. On the procedure: (§3) After the capture ligand incubation, 100 μL of sample or standards were added in each well, and incubated for 1 hour at room temperature. Plates were washed, incubated with HRP-conjugated probe antibody (such as anti-HIS tag antibody) in sample buffer for 1 hour, washed, and incubated with TMB substrate (Thermo Scientific). Reactions were stopped after approximately 10 minutes with 2 M sulfuric acid, and the absorbance at 450 nm was measured via a plate reader (Molecular Devices). The ligand of interest, capture ligand, target protein, and probe ligand used in example ELISA assays performed are highlighted in the table below.
(§4) Enzymatic Kd Calculation Assay. The Kd values of ligands of interest were determined using a protocol modified from Friguet et al., Journal of immunological methods, 77, 305-319 (1985). The samples were prepared and analyzed by ELISA assay in a similar process as described above. The OD450 for the standards and their concentration values were fit to a four parameter logistic curve (standard curve). The concentration of the free Bcl-xL in solution (responsible for the signal) for each sample was calculated using the standard curve, and converted into percent of Bcl-xL bound by ligand in solution. For each ligand, the values for all the tested concentration of Bcl-xL and peptide in solution were fit simultaneously to the monovalent equilibrium model below to obtain the dissociation constant Kd (in which [C]EQ, [T]₀, [L]₀ represent the concentration of the target-ligand complex at equilibrium, the initial concentration of the target protein, and the initial concentration of the ligand, respectively).
(§5) The equilibrium assay is a modified version of the method described by Friguet et al., supra. The samples were prepared and analyzed by ELISA assay in a similar process as described above.

For assay [6], the target named is B4. The assay can be described thus: equilibrium ELISA and AMMP, monovalent model, known [L]0.
Assay [7] concerns the target B4. The assay can be described thus: equilibrium AMMP, monovalent model. The procedure:
(§6) AMMP Assays. For the AMMP assays, 90 μL of each sample or standards was incubated with 30 μL of magnetic beads (12 μg of beads/mL) and fluorescein-labeled antibody (8 nM) in sample buffer for 1 hour. The experiment's run buffer was 1×PBS+1% (v/v) Tween-20+1% (v/v) heat-treated FBS (Invitrogen; FBS was heat treated for 15 minutes at 65° C. and filtered). BioScale Universal Detection Cartridges were used in performing all of the assays. The device was used per the manufacturer's instructions. The ligand of interest, capture ligand, target protein, and probe ligand used in example AMMP assays performed are highlighted in the table below.
(§7) A competing ligand of unknown Kd was incubated with the target and allowed to equilibrate. The target protein bound to the competing ligand is not anchored to the magnetic beads. Subsequent wash steps thereby […]. The Kd of interaction between the target protein and the competing ligand can then be determined by quantifying the amount of free target in solution.

The target of assay [8] is B4. Put plainly: calculated from the equilibrium Kd and the radiolabeled off-rate. On the procedure:
as §2

The target in assay [9] is B4. Put plainly: binding (equilibrium ELISA) Kd. The procedure: as §3, with “ELISA Assays. […] Plates were washed 3× with wash buffer (1×PBS+0.1% (v/v) Tween-20) and blocked with 1×PBS+5% (w/v) BSA for two hours. […] After” for “After”
Enzymatic Kd Calculation Assay. The Kd values of ligands of interest were determined using a protocol modified from Friguet et al., Journal of immunological methods, 77, 305-319 (1985). The samples were prepared and analyzed by ELISA assay in a similar process as described above. The OD450 for the standards and their concentration values were fit to a four parameter logistic curve (standard curve). The concentration of the free Bcl-xL in solution (responsible for the signal) for each sample was calculated using the standard curve, and converted into percent of Bcl-xL bound by ligand in solution. […]

Assay [10] deals with T1, Bim peptide (synthetic 26-residue fragment of Bim, biotin-labeled) (C-terminal amide; biotin on the side chain of the C-terminal Lys). The assay can be described thus: equilibrium ELISA and AMMP, monovalent model, Kd and [L]0 fit simultaneously.
The target of assay [11] is T1, Bim peptide (synthetic 26-residue …). Put plainly: equilibrium ELISA, monovalent model. On the procedure:
as §3, §4, §5

Assay [12] has the same target. Put plainly: equilibrium AMMP, monovalent model. On the procedure: as §6, §7

Ends that are not written are not given here. * marks the point of attachment. Ser‑Gly linker = flexible serine-glycine linker, six amino acids long; Biotin = O=C1N[C@H]2[C@H](CS[C@H]2CCCCC(=O)*)N1

T1 sequence (peptide, as listed by the source): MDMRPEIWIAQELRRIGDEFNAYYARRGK

B1: D1, radiolabeled in vitro translated peptide with C-terminal serine-glycine linker and HA tag (peptide)
peptide: MIAISTIYNYKKAADHYAMTK-{Ser‑Gly linker-HA tag}
modifications: also: 35S-labeled methionine
notes: not shown: flexible serine-glycine linker, six amino acids long; HA tag
B1: the koff in assay [1] and in assay [2] was 2e-06 s⁻¹ throughout.

B2: Peptide E2 (synthetic, biotin-labeled) (peptide)
peptide: MIETITIYKYKKAADHFSMSMGSK(Biotin)-NH2
modifications: N-terminus assumed
SMILES: CC[C@H](C)[C@H](NC(=O)[C@@H](NC(=O)[C@@H](NC(=O)[C@@H](NC(=O)[C@H](CCC(=O)O)NC(=O)[C@@H](NC(=O)[C@@H](N)CCSC)[C@@H](C)CC)[C@@H](C)O)[C@@H](C)CC)[C@@H](C)O)C(=O)N[C@@H](Cc1ccc(O)cc1)C(=O)N[C@@H](CCCCN)C(=O)N[C@@H](Cc1ccc(O)cc1)C(=O)N[C@@H](CCCCN)C(=O)N[C@@H](CCCCN)C(=O)N[C@@H](C)C(=O)N[C@@H](C)C(=O)N[C@@H](CC(=O)O)C(=O)N[C@@H](Cc1c[nH]cn1)C(=O)N[C@@H](Cc1ccccc1)C(=O)N[C@@H](CO)C(=O)N[C@@H](CCSC)C(=O)N[C@@H](CO)C(=O)N[C@@H](CCSC)C(=O)NCC(=O)N[C@@H](CO)C(=O)N[C@@H](CCCCNC(=O)CCCC[C@@H]1SC[C@@H]2NC(=O)N[C@@H]21)C(N)=O
notes: Solid phase Fmoc synthesis; also called E2 Pep
As for B2, the Kd in [3] is 300 pM; in assay [4], 240 pM; in assay [5], 290 pM; in [6], 300 pM; in assay [7] it was 315 pM. Besides, in assay [8], the kon is 53000 M⁻¹ s⁻¹.

B3: Peptide E1 (synthetic, biotin-labeled) (peptide)
peptide: MIETITIYNYKKAADHFSMSMGSK(Biotin)-NH2
modifications: N-terminus assumed
SMILES: CC[C@H](C)[C@H](NC(=O)[C@@H](NC(=O)[C@@H](NC(=O)[C@@H](NC(=O)[C@H](CCC(=O)O)NC(=O)[C@@H](NC(=O)[C@@H](N)CCSC)[C@@H](C)CC)[C@@H](C)O)[C@@H](C)CC)[C@@H](C)O)C(=O)N[C@@H](Cc1ccc(O)cc1)C(=O)N[C@@H](CC(N)=O)C(=O)N[C@@H](Cc1ccc(O)cc1)C(=O)N[C@@H](CCCCN)C(=O)N[C@@H](CCCCN)C(=O)N[C@@H](C)C(=O)N[C@@H](C)C(=O)N[C@@H](CC(=O)O)C(=O)N[C@@H](Cc1c[nH]cn1)C(=O)N[C@@H](Cc1ccccc1)C(=O)N[C@@H](CO)C(=O)N[C@@H](CCSC)C(=O)N[C@@H](CO)C(=O)N[C@@H](CCSC)C(=O)NCC(=O)N[C@@H](CO)C(=O)N[C@@H](CCCCNC(=O)CCCC[C@@H]1SC[C@@H]2NC(=O)N[C@@H]21)C(N)=O
notes: Solid phase Fmoc synthesis; also called E1 Pep
As for B3, the Kd in assay [3] is 39 pM; in assay [4], 27 pM; in assay [5], 34 pM; in [6] it was 39 pM; in [7] it was 45 pM; in assay [9], 39 pM. Further, in assay [8], the on-rate (kon) is 310000 M⁻¹ s⁻¹.
As for B4, the Kd in assay [10] was determined as 150 pM; in assay [11], 170 pM; in [12] it was 77 pM.

B5: E1, radiolabeled in vitro translated peptide with C-terminal serine-glycine linker and HA tag (peptide)
peptide: MIETITIYNYKKAADHFSMSM-{Ser‑Gly linker-HA tag}
modifications: also: 35S-labeled methionine
notes: as for B1
Turning to B5, the koff is 1.2e-05 s⁻¹ in assay [1] and 7.4e-06 s⁻¹ in [2].

B6: Peptide D1 (synthetic, biotin-labeled) (peptide)
peptide: MIAISTIYNYKKAADHYAMTKGSK(Biotin)-NH2
modifications: N-terminus assumed
SMILES: CC[C@H](C)[C@H](NC(=O)[C@H](C)NC(=O)[C@@H](NC(=O)[C@@H](N)CCSC)[C@@H](C)CC)C(=O)N[C@@H](CO)C(=O)N[C@H](C(=O)N[C@H](C(=O)N[C@@H](Cc1ccc(O)cc1)C(=O)N[C@@H](CC(N)=O)C(=O)N[C@@H](Cc1ccc(O)cc1)C(=O)N[C@@H](CCCCN)C(=O)N[C@@H](CCCCN)C(=O)N[C@@H](C)C(=O)N[C@@H](C)C(=O)N[C@@H](CC(=O)O)C(=O)N[C@@H](Cc1c[nH]cn1)C(=O)N[C@@H](Cc1ccc(O)cc1)C(=O)N[C@@H](C)C(=O)N[C@@H](CCSC)C(=O)N[C@H](C(=O)N[C@@H](CCCCN)C(=O)NCC(=O)N[C@@H](CO)C(=O)N[C@@H](CCCCNC(=O)CCCC[C@@H]1SC[C@@H]2NC(=O)N[C@@H]21)C(N)=O)[C@@H](C)O)[C@@H](C)CC)[C@@H](C)O
notes: Solid phase Fmoc synthesis; Also the capture ligand of the forward assays for peptide ligands; also called D1 Pep; D1 Peptide
As for B6, the Kd in [3] amounted to 8.5 pM; in [4], 14 pM; in assay [5], 7 pM; in assay [6], 8.5 pM; in assay [7], 12 pM; in [9], 9 pM. The kon in assay [8] was 240000 M⁻¹ s⁻¹.

The record behind these values is US20180172683A1 (published 2018).
